According to IntAct's records for PubMed 21708944:

B1: Chromosomal replication initiator protein DnaA (Escherichia coli (strain K12)), P03004 (parent)
chain: MSLSLWQQCLARLQDELPATEFSMWIRPLQAELSDNTLALYAPNRFVLDWVRDKYLNNINGLLTSFCGADAPQLRFEVGTKPVTQTPQAAVTSNVAAPAQVAQTQPQRAAPSTRSGWDNVPAPAEPTYRSNVNVKHTFDNFVEGKSNQLARAAARQVADNPGGAYNPLFLYGGTGLGKTHLLHAVGNGIMARKPNAKVVYMHSERFVQDMVKALQNNAIEEFKRYYRSVDALLIDDIQFFANKERSQEEFFHTFNALLEGNQQIILTSDRYPKEINGVEDRLKSRFGWGLTVAIEPPELETRVAILMKKADENDIRLPGEVAFFIAKRLRSNVRELEGALNRVIANANFTGRAITIDFVREALRDLLALQEKLVTIDNIQKTVAEYYKIKVADLLSKRRSRSVARPRQMAMALAKELTNHSLPEIGDAFGGRDHTTVLHACRKIEQLREESHDIKEDFSNLIRTLSS
partner: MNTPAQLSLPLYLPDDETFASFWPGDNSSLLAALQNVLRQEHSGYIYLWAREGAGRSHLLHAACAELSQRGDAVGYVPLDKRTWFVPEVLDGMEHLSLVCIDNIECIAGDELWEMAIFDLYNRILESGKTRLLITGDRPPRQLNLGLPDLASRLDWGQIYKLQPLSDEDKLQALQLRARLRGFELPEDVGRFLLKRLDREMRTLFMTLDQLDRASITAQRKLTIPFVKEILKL

Variants of: B1
Conditions: with hda_ecoli hda

effect of a mutation on the interaction	Variant
decreasing interaction	MSLSLWQQCLARLQDELPATEFSMWIRPLQAELSDNTLALYAPNRFVLDWVRDKYLNNINGLLTSFCGADAPQLRFEVGTKPVTQTPQAAVTSNVAAPAQVAQTQPQRAAPSTRSGWDNVPAPAEPTYRSNVNVKHTFDNFVEGKSNQLARAAARQVADNPGGAYNPLFLYGGTGLGKTHLLHAVGNGIMARKPNAKVVYMHSERFVQDMVKALQNNAIEEFKRYYRSVDALLIDDIQFFANKERSQEEFFHTFNALLEGNQQIILTSDRYPKEINGVEDRLKSRFGWGLTVAIEPPELETRVAILMKKADENDIRLPGEVAFFIAKRLRSNVRELEGALNRVIANANFTGRAITIDFVREALRDLLALQEKLVTIDNIQKTVAEYYKIKVADLLSKRRSRSVARPRQMAMALAKELTNHSLAEIGDAFGGRDHTTVLHACRKIEQLREESHDIKEDFSNLIRTLSS [P423A]
decreasing interaction	MSLSLWQQCLARLQDELPATEFSMWIRPLQAELSDNTLALYAPNRFVLDWVRDKYLNNINGLLTSFCGADAPQLRFEVGTKPVTQTPQAAVTSNVAAPAQVAQTQPQRAAPSTRSGWDNVPAPAEPTYRSNVNVKHTFDNFVEGKSNQLARAAARQVADNPGGAYNPLFLYGGTGLGKTHLLHAVGNGIMARKPNAKVVYMHSERFVQDMVKALQNNAIEEFKRYYRSVDALLIDDIQFFANKERSQEEFFHTFNALLEGNQQIILTSDRYPKEINGVEDRLKSRFGWGLTVAIEPPELETRVAILMKKADENDIRLPGEVAFFIAKRLRSNVRELEGALNRVIANANFTGRAITIDFVREALRDLLALQEKLVTIDNIQKTVAEYYKIKVADLLSKRRSRSVARPRQMAMALAKELTNHSAPEIGDAFGGRDHTTVLHACRKIEQLREESHDIKEDFSNLIRTLSS [L422A]
decreasing interaction	MSLSLWQQCLARLQDELPATEFSMWIRPLQAELSDNTLALYAPNRFVLDWVRDKYLNNINGLLTSFCGADAPQLRFEVGTKPVTQTPQAAVTSNVAAPAQVAQTQPQRAAPSTRSGWDNVPAPAEPTYRSNVNVKHTFDNFVEGKSNQLARAAARQVADNPGGAYNPLFLYGGTGLGKTHLLHAVGNGIMARKPNAKVVYMHSERFVQDMVKALQNNAIEEFKRYYRSVDALLIDDIQFFANKERSQEEFFHTFNALLEGNQQIILTSDRYPKEINGVEDRLKSRFGWGLTVAIEPPELETRVAILMKKADENDIRLPGEVAFFIAKRLRSNVRELEGALNRVIANANFTGRAITIDFVREALRDLLALQEKLVTIDNIQKTVAEYYKIKVADLLSKRRSRSVARPRQMAMALAKELTNHSGPEIGDAFGGRDHTTVLHACRKIEQLREESHDIKEDFSNLIRTLSS [L422G]
